Measurements: patent US20160038561A1 (SYNG PHARMACEUTICALS, published 2016)
No end group written: not given here. *: point of attachment. FITC = O=C1OC2(c3ccc(O)cc3Oc3cc(O)ccc32)c2ccc(NC(=S)*)cc21

Target: T1, Synuclein-gamma (SNCG) (UniProt O76070 1-127)
T1 construct: Intracellular protein in MCF7-SNCG cells; also called γ-synuclein; gamma synuclein
Assay: co-immunoprecipitation with anti-SNCG antibody from treated MCF7-SNCG cell lysates, western blot with anti-FITC antibody

T1 sequence (O76070 whole entry): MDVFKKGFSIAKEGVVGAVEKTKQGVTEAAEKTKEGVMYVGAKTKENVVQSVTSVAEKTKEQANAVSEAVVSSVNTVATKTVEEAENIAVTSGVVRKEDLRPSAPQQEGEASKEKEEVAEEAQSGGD

B1: FITC tagged GYGRKKRRQRRR (TAT) alone (peptide)
peptide: {FITC}-GYGRKKRRQRRR
notes: Control peptide in the co-immunoprecipitation; also called TAT CTL; control peptide
- binding result: no binding
